Source: patent CN117007808A

Target: 融合蛋白gD-CD2v (猪伪狂犬病病毒 PRV HN1201; 非洲猪瘟病毒 ASFV SY18)

B1: 非洲猪瘟病毒CD2v蛋白单克隆抗体5G8 (antibody, V domains shown)
VH: YDHDYAKLGTELGSTSNGRQCAGIALTSRMKLWLNWVKQSHGKSLEWIGVIDPNNGGTTYNQKFKGKATLTVDKSSSTAYMEVRSLTSEYSAVYYCARYGKGIGLDYWGQGTSVTVSS
VL: DVVMTQTPLSLPVSLGDQASISCRSSQSLVHRNGNTYLHWYLQKPGQSPKLLIYKVSNRFSGVPDRFSGSGSGTDFTLKISRVEAVDLGVYFCSQSTHVPWTFGGGTKLEIK
With B1 the 阻断率 was 91 %.
